Experimental data from patent US20200109190A1 (AstraZeneca / MedImmune, published 2020).
Where “and” joins values, the source holds several entries; their conditions need not be identical. Identical values can stand only once. Like-named read-outs stand apart in the source and are kept apart here.

Experiments:
[1] = target: T1, LukSF (Staphylococcus aureus); test: cell-based or functional assay
[2] = target: T2, HlgAB (Staphylococcus aureus, UniProt P0A074 30-309); test: cell-based or functional assay
T2 sequence 1: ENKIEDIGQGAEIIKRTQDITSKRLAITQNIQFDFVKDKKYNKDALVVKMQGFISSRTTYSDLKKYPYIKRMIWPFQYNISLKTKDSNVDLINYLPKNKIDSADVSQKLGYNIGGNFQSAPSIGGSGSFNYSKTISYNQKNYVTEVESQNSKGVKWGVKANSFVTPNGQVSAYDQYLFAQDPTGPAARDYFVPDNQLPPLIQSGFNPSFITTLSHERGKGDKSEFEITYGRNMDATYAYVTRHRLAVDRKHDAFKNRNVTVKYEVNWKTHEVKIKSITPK
T2 sequence 2: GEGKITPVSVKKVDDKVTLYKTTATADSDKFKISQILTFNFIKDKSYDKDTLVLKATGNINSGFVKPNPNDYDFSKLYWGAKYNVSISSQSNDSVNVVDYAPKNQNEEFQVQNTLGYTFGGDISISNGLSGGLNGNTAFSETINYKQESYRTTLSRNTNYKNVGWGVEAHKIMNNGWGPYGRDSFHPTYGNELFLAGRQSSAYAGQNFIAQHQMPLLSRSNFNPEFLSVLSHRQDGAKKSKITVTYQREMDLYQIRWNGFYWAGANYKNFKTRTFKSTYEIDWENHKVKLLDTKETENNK

[3] = target: T3, S. aureus LukF (Staphylococcus aureus); test: method not stated at Table 8; BLI (Octet) is described in Example 4
[4] = target: T1, LukSF; test: cell-based or functional assay; remark: listed apart in the source
[5] = target: T2, HlgAB; test: cell-based or functional assay; remark: listed apart in the source
[6] = target: T1, LukSF; test: cell-based or functional assay; remark: listed apart in the source
[7] = target: T2, HlgAB; test: cell-based or functional assay; remark: listed apart in the source
[8] = target: T4, S. aureus LukD (Staphylococcus aureus, UniProt Q2FXB1 27-327)
T4 sequence: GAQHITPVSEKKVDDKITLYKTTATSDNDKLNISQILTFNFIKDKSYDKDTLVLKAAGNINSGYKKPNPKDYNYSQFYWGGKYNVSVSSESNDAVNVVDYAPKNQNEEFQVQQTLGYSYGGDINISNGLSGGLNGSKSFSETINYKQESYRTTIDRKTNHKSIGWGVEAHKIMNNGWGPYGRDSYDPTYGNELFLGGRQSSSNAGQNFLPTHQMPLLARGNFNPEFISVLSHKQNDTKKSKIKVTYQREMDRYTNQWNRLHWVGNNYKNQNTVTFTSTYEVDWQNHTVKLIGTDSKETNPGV

[9] = target: T3, S. aureus LukF
[10] = target: T5, S. aureus HlgB (Staphylococcus aureus, UniProt P0A075 27-325)
T5 sequence: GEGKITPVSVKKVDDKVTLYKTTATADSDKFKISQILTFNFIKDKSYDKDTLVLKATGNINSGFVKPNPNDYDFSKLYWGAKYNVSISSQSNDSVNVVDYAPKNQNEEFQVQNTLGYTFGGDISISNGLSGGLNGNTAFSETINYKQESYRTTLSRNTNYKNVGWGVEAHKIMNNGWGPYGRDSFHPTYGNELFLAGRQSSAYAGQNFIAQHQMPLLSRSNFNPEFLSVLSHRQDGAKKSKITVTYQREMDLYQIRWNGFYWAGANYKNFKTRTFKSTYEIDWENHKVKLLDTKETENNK

[11] = target: T4, S. aureus LukD; test: BLI (Octet384), antibody captured on anti-human IgG Fc biosensors, antigen in solution; dark sample
[12] = target: T3, S. aureus LukF; test: as above
[13] = target: T5, S. aureus HlgB; test: as above
[14] = target: LukED (Staphylococcus aureus, UniProt O54081 29-314); test: cell-based or functional assay
[15] = target: T1, LukSF; test: cell-based or functional assay; remark: listed apart in the source
[16] = target: T6, HlgCB (Staphylococcus aureus, UniProt Q07227 30-315); test: cell-based or functional assay
T6 sequence 1: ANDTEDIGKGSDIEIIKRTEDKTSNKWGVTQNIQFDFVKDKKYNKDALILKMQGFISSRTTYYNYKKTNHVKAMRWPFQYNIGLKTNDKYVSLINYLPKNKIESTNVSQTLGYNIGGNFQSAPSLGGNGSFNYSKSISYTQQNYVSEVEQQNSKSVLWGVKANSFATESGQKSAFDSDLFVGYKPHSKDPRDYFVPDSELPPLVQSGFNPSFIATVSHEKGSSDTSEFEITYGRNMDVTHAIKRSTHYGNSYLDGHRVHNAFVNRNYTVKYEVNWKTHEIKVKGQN
T6 sequence 2: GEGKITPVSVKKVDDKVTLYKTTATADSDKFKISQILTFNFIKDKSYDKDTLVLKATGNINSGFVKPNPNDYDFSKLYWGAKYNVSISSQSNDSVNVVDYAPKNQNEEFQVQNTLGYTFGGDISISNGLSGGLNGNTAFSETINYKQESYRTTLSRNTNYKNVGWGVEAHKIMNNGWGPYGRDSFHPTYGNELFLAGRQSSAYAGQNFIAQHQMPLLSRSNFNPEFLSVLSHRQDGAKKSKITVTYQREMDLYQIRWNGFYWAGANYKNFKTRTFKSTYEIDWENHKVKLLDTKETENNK

[17] = target: T4, S. aureus LukD; test: BLI (Octet384), antibody captured on anti-human IgG Fc biosensors, antigen in solution; light-stressed sample
[18] = target: T3, S. aureus LukF; test: as above
[19] = target: T5, S. aureus HlgB; test: as above

B1: SAN481-YTE (antibody)
heavy: QLQLVESGGGAVQPGRSLKLSCAASGFNFSTYAMHWVRQAPGRGLEWVAVTSFDGSNEYYIDSVKGRFTISRDNTKNTLYLQMTGLRVEDTALYFCARDEYTGGWYSVGYWGQGTLVTVSSASTKGPSVFPLAPSSKSTSGGTAALGCLVKDYFPEPVTVSWNSGALTSGVHTFPAVLQSSGLYSLSSVVTVPSSSLGTQTYICNVNHKPSNTKVDKRVEPKSCDKTHTCPPCPAPELLGGPSVFLFPPKPKDTLYITREPEVTCVVVDVSHEDPEVKFNWYVDGVEVHNAKTKPREEQYNSTYRVVSVLTVLHQDWLNGKEYKCKVSNKALPAPIEKTISKAKGQPREPQVYTLPPSREEMTKNQVSLTCLVKGFYPSDIAVEWESNGQPENNYKTTPPVLDSDGSFFLYSKLTVDKSRWQQGNVFSCSVMHEALHNHYTQKSLSLSPGK
light: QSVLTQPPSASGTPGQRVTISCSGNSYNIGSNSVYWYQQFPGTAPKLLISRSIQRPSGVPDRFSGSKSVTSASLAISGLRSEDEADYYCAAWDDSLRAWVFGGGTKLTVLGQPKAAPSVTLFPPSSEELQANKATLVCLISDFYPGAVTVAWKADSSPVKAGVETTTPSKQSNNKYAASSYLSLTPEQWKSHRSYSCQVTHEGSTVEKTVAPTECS
notes: also called QD1
IC50 Fold loss vs. WT (LukSF) [1]: 0.938 fold | IC50 for LukSF [1]: 0.15 µg/mL | IC50 Fold loss vs. WT (HIgAB) [2]: 0.95 fold | IC50 for HIgAB [2]: 0.54 µg/mL | Kd [3]: 0.0148 nM | IC50 (LukSF) HL-60 [4]: 0.15 µg/mL | IC50 (HIgAB) HL-60 [5]: 0.54 µg/mL | IC50 (LukSF) HL-60; Dark sample [6]: 0.209 µg/mL | IC50 (LukSF) HL-60; Light sample [6]: 0.233 µg/mL | IC50 (HIgAB) HL-60; Dark sample [7]: 0.704 µg/mL | IC50 (HIgAB) HL-60; Light sample [7]: 0.821 µg/mL | Kd [8]: < 0.001 nM | koff [8]: < 1e-07 s⁻¹ | kon [8]: 277000 M⁻¹ s⁻¹ and 294000 M⁻¹ s⁻¹ | Kd [9]: 0.232 nM and 0.226 nM | koff [9]: 6.55e-05 s⁻¹ and 6.47e-05 s⁻¹ | kon [9]: 283000 M⁻¹ s⁻¹ and 287000 M⁻¹ s⁻¹ | Kd [10]: < 0.001 nM | koff [10]: < 1e-07 s⁻¹ | kon [10]: 240000 M⁻¹ s⁻¹ and 265000 M⁻¹ s⁻¹

B2: SAN481-SY-YTE (antibody, V domains shown)
VH: QLQLVESGGGAVQPGRSLKLSCAASGFNFSTYAMHWVRQAPGRGLEWVAVTSFDGSNEYYIDSVKGRFTISRDNTKNTLYLQMTGLRVEDTALYFCARDEYTGGWYSVGYWGQGTLVTVSS
VL: QSVLTQPPSASGTPGQRVTISCSGSSYNIGSNYVYWYQQFPGTAPKLLISRSIQRPSGVPDRFSGSKSVTSASLAISGLRSEDEADYYCAAWDDSLRAWVFGGGTKLTVLG
notes: also called QD2; SAN481VL26S32Y-YTE
IC50 Fold loss vs. WT (LukSF) [1]: 1.14 fold | IC50 for LukSF [1]: 0.183 µg/mL | IC50 Fold loss vs. WT (HIgAB) [2]: 0.97 fold | IC50 for HIgAB [2]: 0.551 µg/mL | Kd [3]: 0.101 nM | IC50 (LukSF) HL-60 [4]: 0.18 µg/mL | IC50 (HIgAB) HL-60 [5]: 0.55 µg/mL | IC50 (LukSF) HL-60; Dark sample [6]: 0.221 µg/mL | IC50 (LukSF) HL-60; Light sample [6]: 0.241 µg/mL | IC50 (HIgAB) HL-60; Dark sample [7]: 0.721 µg/mL | IC50 (HIgAB) HL-60; Light sample [7]: 0.736 µg/mL

B3: SAN481-SYT-YTE (antibody, V domains shown)
VH: QLQLVESGGGAVQPGRSLKLSCAASGFTFSTYAMHWVRQAPGRGLEWVAVTSFDGSNEYYIDSVKGRFTISRDNTKNTLYLQMTGLRVEDTALYFCARDEYTGGWYSVGYWGQGTLVTVSS
VL: QSVLTQPPSASGTPGQRVTISCSGSSYNIGSNYVYWYQQFPGTAPKLLISRSIQRPSGVPDRFSGSKSVTSASLAISGLRSEDEADYYCAAWDDSLRAWVFGGGTKLTVLG
notes: also called QD5
Kd [11]: < 0.001 nM | koff [11]: < 1e-07 s⁻¹ | kon [11]: 279000 M⁻¹ s⁻¹ | Kd [12]: 0.101 nM | koff [12]: 3.69e-05 s⁻¹ | kon [12]: 365000 M⁻¹ s⁻¹ | Kd [13]: 0.0191 nM | koff [13]: 4.88e-06 s⁻¹ | kon [13]: 255000 M⁻¹ s⁻¹ | IC50 Fold loss vs. WT (LukSF) [1]: 1.01 fold | IC50 for LukSF [1]: 0.162 µg/mL | IC50 Fold loss vs. WT (HIgAB) [2]: 0.951 fold | IC50 for HIgAB [2]: 0.54 µg/mL | Kd [3]: 0.101 nM | IC50 (read off the curve) [14]: ~4 µg/mL | IC50 (read off the curve) [15]: ~0.4 µg/mL | IC50 (read off the curve) [16]: ~2 µg/mL | IC50 (LukSF) HL-60 [4]: 0.16 µg/mL | IC50 (HIgAB) HL-60 [5]: 0.54 µg/mL | IC50 (LukSF) HL-60; Dark sample [6]: 0.163 µg/mL | IC50 (LukSF) HL-60; Light sample [6]: 0.184 µg/mL | IC50 (HIgAB) HL-60; Dark sample [7]: 0.576 µg/mL | IC50 (HIgAB) HL-60; Light sample [7]: 0.645 µg/mL | Kd [17]: < 0.001 nM | koff [17]: < 1e-07 s⁻¹ | kon [17]: 263000 M⁻¹ s⁻¹ | Kd [18]: < 0.001 nM | koff [18]: < 1e-07 s⁻¹ | kon [18]: 257000 M⁻¹ s⁻¹ | Kd [19]: < 0.001 nM | koff [19]: < 1e-07 s⁻¹ | kon [19]: 244000 M⁻¹ s⁻¹

B4: SAN481-T-YTE (antibody, V domains shown)
VH: QLQLVESGGGAVQPGRSLKLSCAASGFTFSTYAMHWVRQAPGRGLEWVAVTSFDGSNEYYIDSVKGRFTISRDNTKNTLYLQMTGLRVEDTALYFCARDEYTGGWYSVGYWGQGTLVTVSS
VL: QSVLTQPPSASGTPGQRVTISCSGNSYNIGSNSVYWYQQFPGTAPKLLISRSIQRPSGVPDRFSGSKSVTSASLAISGLRSEDEADYYCAAWDDSLRAWVFGGGTKLTVLG
notes: also called QD3; SAN481VH28T-YTE
IC50 Fold loss vs. WT (LukSF) [1]: 1.04 fold | IC50 for LukSF [1]: 0.166 µg/mL | IC50 Fold loss vs. WT (HIgAB) [2]: 0.948 fold | IC50 for HIgAB [2]: 0.539 µg/mL | Kd [3]: < 0.001 nM | IC50 (LukSF) HL-60 [4]: 0.17 µg/mL | IC50 (HIgAB) HL-60 [5]: 0.54 µg/mL | IC50 (LukSF) HL-60; Dark sample [6]: 0.193 µg/mL | IC50 (LukSF) HL-60; Light sample [6]: 0.205 µg/mL | IC50 (HIgAB) HL-60; Dark sample [7]: 0.707 µg/mL | IC50 (HIgAB) HL-60; Light sample [7]: 0.624 µg/mL

B5: SAN481-TF-YTE (antibody, V domains shown)
VH: QLQLVESGGGAVQPGRSLKLSCAASGFTFSTYAMHWVRQAPGRGLEWVAVTSFDGSNEYYIDSVKGRFTISRDNTKNTLYLQMTGLRVEDTALYFCARDEYTGGFYSVGYWGQGTLVTVSS
VL: QSVLTQPPSASGTPGQRVTISCSGNSYNIGSNSVYWYQQFPGTAPKLLISRSIQRPSGVPDRFSGSKSVTSASLAISGLRSEDEADYYCAAWDDSLRAWVFGGGTKLTVLG
notes: also called QD4; SAN481-VH28T100E-YTE
IC50 Fold loss vs. WT (LukSF) [1]: 5.07 fold | IC50 for LukSF [1]: 0.811 µg/mL | IC50 Fold loss vs. WT (HIgAB) [2]: 0.775 fold | IC50 for HIgAB [2]: 0.441 µg/mL | Kd [3]: 1.21 nM | IC50 (LukSF) HL-60 [4]: 0.81 µg/mL | IC50 (HIgAB) HL-60 [5]: 0.44 µg/mL
